Data reported in IntAct's records for PubMed 33097660.

B1: ORF6 protein (SARS-CoV-2), P0DTC6 (parent)
chain: MFHLVDFQVTIAEILLIIMRTFKVSIWNLDYIINLIIKNLSKSLTENKYSQLDEEQPMEID

Variants of: B1
Conditions: with ima5_human KPNA1, P52294
ima5_human KPNA1, P52294, sequence (P52294 whole entry): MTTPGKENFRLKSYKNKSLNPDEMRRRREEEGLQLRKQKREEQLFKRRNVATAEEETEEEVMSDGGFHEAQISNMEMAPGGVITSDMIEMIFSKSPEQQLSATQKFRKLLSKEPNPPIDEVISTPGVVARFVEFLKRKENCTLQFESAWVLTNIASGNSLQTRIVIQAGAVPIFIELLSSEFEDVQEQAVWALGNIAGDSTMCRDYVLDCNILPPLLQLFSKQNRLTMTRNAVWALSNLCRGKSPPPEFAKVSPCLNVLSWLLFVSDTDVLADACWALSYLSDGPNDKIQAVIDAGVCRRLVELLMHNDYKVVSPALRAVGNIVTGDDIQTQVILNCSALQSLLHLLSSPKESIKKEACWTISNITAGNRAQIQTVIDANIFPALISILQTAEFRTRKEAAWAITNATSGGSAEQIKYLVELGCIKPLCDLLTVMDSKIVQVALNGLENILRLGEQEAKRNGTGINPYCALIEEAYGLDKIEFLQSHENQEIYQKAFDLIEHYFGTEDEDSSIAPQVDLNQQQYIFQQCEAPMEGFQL

Variant	effect of a mutation on the interaction
M58R	with no effect

Variants of: B1
Conditions: with ima1_human KPNA2, P52292

Variant	effect of a mutation on the interaction
M58R	with no effect

Variants of: B1
Conditions: with nup98_human NUP98, P52948
nup98_human NUP98, P52948, sequence (P52948 whole entry): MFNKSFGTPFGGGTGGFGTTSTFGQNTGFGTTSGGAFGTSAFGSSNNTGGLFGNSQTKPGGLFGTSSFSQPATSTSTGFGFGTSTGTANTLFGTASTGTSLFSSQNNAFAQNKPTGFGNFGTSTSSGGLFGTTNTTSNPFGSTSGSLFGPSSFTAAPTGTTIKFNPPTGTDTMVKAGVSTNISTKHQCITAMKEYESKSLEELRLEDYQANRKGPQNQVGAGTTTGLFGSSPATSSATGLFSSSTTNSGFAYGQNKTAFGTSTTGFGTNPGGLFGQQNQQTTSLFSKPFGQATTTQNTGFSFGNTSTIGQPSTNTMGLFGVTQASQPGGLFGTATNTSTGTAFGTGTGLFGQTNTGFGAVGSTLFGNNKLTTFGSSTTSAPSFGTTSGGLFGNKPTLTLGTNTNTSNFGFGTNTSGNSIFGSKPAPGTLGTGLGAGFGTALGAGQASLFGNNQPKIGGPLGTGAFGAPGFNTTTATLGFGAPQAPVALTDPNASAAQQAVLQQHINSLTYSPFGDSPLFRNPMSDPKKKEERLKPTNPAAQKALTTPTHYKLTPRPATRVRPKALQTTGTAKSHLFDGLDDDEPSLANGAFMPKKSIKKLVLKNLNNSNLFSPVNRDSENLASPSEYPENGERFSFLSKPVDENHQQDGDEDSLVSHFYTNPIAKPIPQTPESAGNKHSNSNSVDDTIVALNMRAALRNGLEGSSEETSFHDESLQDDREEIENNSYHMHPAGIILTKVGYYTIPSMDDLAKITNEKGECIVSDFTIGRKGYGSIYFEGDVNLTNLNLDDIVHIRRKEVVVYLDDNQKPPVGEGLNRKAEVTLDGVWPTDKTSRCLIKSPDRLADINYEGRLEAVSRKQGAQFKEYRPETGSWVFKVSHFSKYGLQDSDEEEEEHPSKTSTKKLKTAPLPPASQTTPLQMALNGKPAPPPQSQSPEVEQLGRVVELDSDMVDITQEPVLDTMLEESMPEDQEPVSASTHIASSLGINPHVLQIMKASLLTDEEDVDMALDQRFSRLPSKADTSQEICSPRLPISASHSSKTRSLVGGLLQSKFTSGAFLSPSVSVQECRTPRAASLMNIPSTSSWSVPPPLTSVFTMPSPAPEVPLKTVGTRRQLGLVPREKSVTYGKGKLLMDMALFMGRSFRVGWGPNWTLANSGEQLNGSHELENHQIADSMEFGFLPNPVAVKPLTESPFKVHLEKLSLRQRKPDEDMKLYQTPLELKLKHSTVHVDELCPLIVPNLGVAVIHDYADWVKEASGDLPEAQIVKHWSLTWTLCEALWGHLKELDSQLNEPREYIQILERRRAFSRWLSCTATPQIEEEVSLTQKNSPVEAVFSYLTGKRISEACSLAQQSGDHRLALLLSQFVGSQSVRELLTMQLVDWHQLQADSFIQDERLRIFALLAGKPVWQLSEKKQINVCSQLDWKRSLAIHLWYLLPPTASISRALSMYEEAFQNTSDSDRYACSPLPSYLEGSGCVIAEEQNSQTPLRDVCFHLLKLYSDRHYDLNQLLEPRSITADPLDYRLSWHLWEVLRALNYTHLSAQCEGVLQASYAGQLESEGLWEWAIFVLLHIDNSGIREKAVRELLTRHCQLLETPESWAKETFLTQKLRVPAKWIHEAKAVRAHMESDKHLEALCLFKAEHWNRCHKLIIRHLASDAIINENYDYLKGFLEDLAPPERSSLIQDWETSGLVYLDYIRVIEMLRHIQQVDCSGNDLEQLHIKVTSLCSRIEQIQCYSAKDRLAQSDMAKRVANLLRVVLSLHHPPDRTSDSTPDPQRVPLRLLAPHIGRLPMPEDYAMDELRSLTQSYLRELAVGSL

Variant	effect of a mutation on the interaction
M58R	disrupting interaction strength
